The assay deals with T1, basic Fibroblast Growth Factor (bFGF) (human, UniProt P09038 143-288, limits assumed).
T1 construct: Bought recombinant protein; It was coated on ELISA plates; also called recombined humanized bFGF; antigen bFGF
As to the kind of experiment: indirect ELISA: bFGF coated at 0.5 ug/ml, anti-His-tag detection, A450. The protocol: The recombined humanized bFGF (Sigma-Aldrich Co.) was diluted to 0.5 μg/ml with carbonate buffer solution (0.05 mol/L, pH9.6) to coat ELISA plates at an amount of 100 μL/well, and incubated at 37° C. for 3 h. After discarding the liquid in the well, the plates were washed with PBST (PBS, 0.015 mol/L, pH 7.4, comprising Tween 20 0.05% (v/v)) for three times, blocked with fat-free milk-PBST 5% (wt), added with the ds-Diabody and anti-bFGF ScFv prepared according to example 1 at a certain concentration to achieve an amount of 100 μL/well. Then the plates were incubated at 37° C. for 1 h, washed with PBST for three times, added with 100 μL/well diluted anti-His-tag mouse monoclonal antibody 1:2000 (v/v) (sigma-aldrich Co.), incubated at 37° C. for 1 h, washed with PBS-T for three times again, and then added with diluted HRP marked goat anti-mouse polyclonal antibody (1:8000 (v/v) (sigma-aldrich Co.), and incubated at 37° C. for 0.5 h. After that, the plates were washed with PBS-T for 5 times, stained by TMB and detected at A450. Meanwhile, PBS was used as a negative control.

T1 sequence (P09038 143-288 limits assumed): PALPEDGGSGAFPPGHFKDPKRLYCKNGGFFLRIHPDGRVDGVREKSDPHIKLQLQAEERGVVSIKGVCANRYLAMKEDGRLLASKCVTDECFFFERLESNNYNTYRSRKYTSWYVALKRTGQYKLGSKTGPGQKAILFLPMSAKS

B1: anti-bFGF humanized ds-Diabody (other)
chain: QSVLTQPASVSGSPGQSITISCTGTSSDVGGYNYVSWYQQHPGKAPKLMIYDVSNRPSGVSNRFSGSKSGNTASLTISGLQAEDEADYYCSSYTSSSTVVFGCGTKLTVLGGGGSQVQLQESGGGLVQPGGSLRLSCAASGFTFSSYEMNWVRQAPGKCLEWVSYISSSGSTIYYADSVKGRFTISRDNAKNSLYLQMNSLRAEDTAVYYCARELTGDWGAFDIWGQGTMVTVSSHHHHHH
notes: Dimer of two VL-GGGGS-VH chains joined covalently by disulfide bonds between Cys at VL 100 and Cys at VH 44; Bivalent; Expressed in HEK 293T cells and purified on a Ni column; also called disulfide bond stabilized-diabody; VL-GGGGS-VH; not shown: N-terminal residues from the vector p3XFLAG-Myc-CMV-25, if any stay on the secreted protein
For B1, the binding result was “binds”.
